The text below walks through data of patent US20220220218A1 (JIANGSU HENGRUI MEDICINE, published 2022).

By Kd is commonly meant the constant that tells how readily two partners part at equilibrium. High values mean weaker binding, low ones tighter binding. In general, koff refers to the first-order rate constant of dissociation. By kon is commonly meant the second-order rate constant of association. A lower kon goes with slow association. For orientation: EC50 means the midpoint of the concentration-response curve. Read a low EC50 as an effect from little substance.

Substitutions are numbered along the chain they refer to.

B1: CPX006 (antibody CPX-006 disclosed in patent application WO2018013611) (antibody, V domains shown)
VH: QVQLVQSGAEVEKPGASVKVSCKASGYTFTSYWITWVRQAPGQGLEWMGDIYPGSGNTNYNEKFKTRVTITADKSTSTAYMELSSLRSEDTAVYYCAKEGGLTTEDYALDYWGQGTLVTVSS
VL: EIVLTQSPATLSLSPGERATLSCRASKNVSTSGYSYMHWYQQKPGQAPRLLIYLASNLESGIPPRFSGSGYGTDFTLTINNIESEDAAYYFCQHSRELPFTFGQGTKVEIKR
B2: Hab108.64 (antibody, human IgG1, kappa, V domains shown)
VH: EVTLKQSGPGLVKPTETLTLTCTVSGFSLSSYGIQWVRQPPGKGLEWLGVIWSGGSADYNAAFISRLTISKDTSKSQVVLTMTNMDPVDTATYYCAGQYGSVWGQGTLVTVSS
VL: DIQMTQSPSSLSASVGDRVTITCRASQDIGDRLNWLQQKPGGAIKRLIYATSSLDSGVPKRFSGSGSGTEYTLTISSLQPEDFATYYCLQYAGSWTFGGGTKVEIKR
notes: also called humanized antibody of mab108
B3: Hab110.21 (antibody, human IgG1, kappa, V domains shown)
VH: EVQLVQSGAEVKKPGASVKVSCKASGYTFTSYTMHWVRQAPGQRLEWMGYINPNSFYIEYNQKFKDRVTITRDTSASTAYMELSSLRSEDTAVYYCARGDYDLFYDMDNWGQGTTVTVSS
VL: DIQMTQSPSSLSASVGDRVTITCRASQDIGNSLNWLQQKPGKAIKRLIYATFRLDSGVPSRFSGSRSGTEYTLTISSLQPEDFATYYCQQYASFPWTFGGGTKVEIKR
notes: also called humanized antibody of mab110
B4: Hab127.31d (antibody, human IgG1, kappa, V domains shown)
VH: EVQLVQSGAEVKKPGASVKVSCKASGYTFTAYFMNWVRQAPGQGLEWMGRIYHNKGDTFYSQKFKGRVTMTVDKSTSTVYMELSSLRSEDTAVYYCATSYVGDWGQGTTVTVSS
VL: B3 VL with N31D, K42G, I44L, F52S, R53S, R66G, Q89L
notes: also called humanized antibody of mab127

The first test addresses T1, human CD73 (huCD73) protein, antigen of the Biacore assay (human, UniProt P21589 27-547, limits assumed).
T1 construct: also called human CD73 antigen
T1 sequence (looked up): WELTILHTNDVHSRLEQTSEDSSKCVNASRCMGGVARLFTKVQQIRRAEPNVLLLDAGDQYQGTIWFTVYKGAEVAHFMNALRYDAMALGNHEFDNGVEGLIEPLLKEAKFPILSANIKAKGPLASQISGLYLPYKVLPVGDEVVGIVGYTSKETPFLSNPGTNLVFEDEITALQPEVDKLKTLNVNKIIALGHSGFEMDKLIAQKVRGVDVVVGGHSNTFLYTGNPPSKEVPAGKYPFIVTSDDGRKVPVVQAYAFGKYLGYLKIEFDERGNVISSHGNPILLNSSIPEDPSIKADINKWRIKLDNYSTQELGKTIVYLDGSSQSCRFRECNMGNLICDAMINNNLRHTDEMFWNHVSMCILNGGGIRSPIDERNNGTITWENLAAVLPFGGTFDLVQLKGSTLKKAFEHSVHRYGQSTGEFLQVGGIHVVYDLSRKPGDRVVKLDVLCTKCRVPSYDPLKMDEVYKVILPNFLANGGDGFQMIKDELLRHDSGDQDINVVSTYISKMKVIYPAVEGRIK
Description: SPR Biacore T200; antibody captured on Protein A chip, CD73 in flow; 1:1 Langmuir. Summed up:
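Antibody was captured on a Protein A chip and human or cynomolgus CD73 antigen was flowed over it in HBS-EP running buffer. Surfaces were regenerated with glycine-HCl pH 1.5, and affinities came from a 1:1 Langmuir fit.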
(SPR reads the build-up and loss of mass on a sensor chip optically.)
On to B1, for which the affinity, expressed as Kd, was 1.85 nM; the off-rate constant (koff) was determined as 0.000368 s⁻¹; the kon is 199000 M⁻¹ s⁻¹.

With B2, the dissociation constant Kd came out at 0.412 nM, the koff worked out at 9.24e-05 s⁻¹ and the kon amounted to 224000 M⁻¹ s⁻¹.

Regarding B3, the Kd is 0.0944 nM, the koff is 6.14e-05 s⁻¹ and the kon is 650000 M⁻¹ s⁻¹.

B4: binding was put at a Kd of 0.257 nM, the dissociation rate constant (koff) was determined as 5.81e-05 s⁻¹ and the kon worked out at 226000 M⁻¹ s⁻¹.

The target of a further test is T2, human CD73 on tumor cell line MDA-MB-231 that highly expresses human CD73 (human, UniProt P21589 27-549).
T2 construct: whole, on cells; Cells were fixed on the plate for the cell ELISA and live for the enzyme assay; also called MDA-MB-231 cells
T2 sequence (looked up): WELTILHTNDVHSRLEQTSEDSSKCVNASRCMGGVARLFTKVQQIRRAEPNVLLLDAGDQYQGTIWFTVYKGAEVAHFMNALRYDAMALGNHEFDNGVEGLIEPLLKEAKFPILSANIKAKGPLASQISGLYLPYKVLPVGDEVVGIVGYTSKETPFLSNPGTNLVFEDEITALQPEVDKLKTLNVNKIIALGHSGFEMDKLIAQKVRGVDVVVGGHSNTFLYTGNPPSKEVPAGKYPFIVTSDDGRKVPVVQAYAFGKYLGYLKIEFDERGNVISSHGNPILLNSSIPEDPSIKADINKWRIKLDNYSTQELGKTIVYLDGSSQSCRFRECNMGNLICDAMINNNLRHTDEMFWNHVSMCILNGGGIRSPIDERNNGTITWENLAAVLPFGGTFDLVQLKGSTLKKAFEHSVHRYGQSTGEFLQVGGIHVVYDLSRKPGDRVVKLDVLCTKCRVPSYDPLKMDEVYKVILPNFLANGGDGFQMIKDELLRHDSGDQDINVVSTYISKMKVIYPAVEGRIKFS
Briefly: cell ELISA on fixed MDA-MB-231 cells. The protocol: The MDA-MB-231 cells were directly coated onto a 96-well microtiter plate. The signal strength after the addition of the antibody was used to determine the binding activity of the antibody to MDA-MB-231 cells. The specific experimental procedures were as follows:
MDA-MB-231 cells (ATCC, Cat No HTB-26) were seeded in the 96-well plate (Corning, Cat No. CLS3599-100EA) at a density of 6×10⁵/ml, 100 μl/well, and cultured overnight. The supernatant was discarded, the plate was washed with PBS for three times, 100 μl/well of cell immune fixed solution (Beyotime, Cat No. P0098) was added and fixed for half an hour at room temperature, and the plate washed with PBS for four times. The liquid was discarded, 250 μl/well blocking solution (5% skim milk diluted in PBS) was added, and incubated in an incubator at 37° C. for 3 hours. After the blocking was finished, the blocking solution was discarded, the plate was washed for 5 times with PBST buffer, 50 μl/well of various concentrations of each of the test antibodies were added, and incubated in an incubator at 37° C. for 1 hour. After the incubation was finished, the plate was washed for 5 times with PBST, 50 μl/well of HRP-labeled goat anti-mouse secondary antibody (Jackson Immuno Research, Cat No. 115-035-003) or goat anti-human secondary antibody (Jackson Immuno Research, Cat No. 109-035-003) diluted with sample diluent was added, and incubated at 37° C. for 1 hour. The plate was washed for 5 times with PBST, 50 μl/well of TMB chromogenic substrate (KPL, Cat No. 52-00-03) was added, incubated at room temperature for 5-15 min, and 50 μl/well of 1M H₂SO₄ was added to stop the reaction. The absorbance value was read by a microplate reader (Molecular Devices, VERSA max) at a wavelength of 450 nm, and the data was analyzed with GraphPad Prism 5. The binding of anti-CD73 antibody to MDA-MB-231 cells over-expressing CD73 was calculated as EC50 value.
(An ELISA detects its analyte on a solid surface through an enzyme-linked reagent.)
Molecule B1 returned an EC50 of 0.433 nM. This lies in the sub-nanomolar range.

B2 registered an EC50 of 0.062 nM.

In turn, B3 came in with an EC50 of 0.056 nM.

B4: a half-maximal response (EC50) required 0.072 nM.
